Patent US20060153834A1
Blank lines part the entries; values can stand above or below the molecule they belong to. No end group written: not given here.

Columns and labels:
[1] = biological target: 14C-Fc fragment of HIgG (human); test: secondary screening, batch, Fc fragment competitive (spiked in MEM)
[2] = biological target: 14C-Fc fragment of HIgG (human); test: secondary screening, batch, Fc fragment non-competitive (PBS)
14C-HIgG (human) [3] = test: secondary screening, batch, HIgG non-competitive (PBS), Micro-BCA
14C-HIgG (human) [4] = test: secondary screening, batch, HIgG competitive (spiked in MEM)
14C-HIgG (human) [5] = test: second round of secondary screening, batch, competitive (MEM), 14C counting
Human IgG (HIgG) (human) [6] = test: batch adsorption isotherm, PBS pH 7.4, peptide resin 0.1 meq/g, direct Langmuir fit
14C-HIgG (human) [7] = test: second round of secondary screening, batch, non-competitive (PBS)
Human IgG (HIgG) (human) [8] = test: batch adsorption isotherm, PBS pH 7.4, peptide resin 0.1 meq/g, double reciprocal curve
Human IgG (HIgG) (human) [9] = test: ratio of ligand to protein at maximum capacity, HWRGWV resin at 0.22 mmol/g
Human IgG (HIgG) (human) [10] = test: ratio of ligand to protein at maximum capacity, HWRGWV resin at 0.040 mmol/g
Human IgG (HIgG) (human) [11] = test: batch adsorption isotherm, PBS pH 7.4, HWRGWV resin at 0.55 mmol/g, Langmuir fit
Human IgG (HIgG) (human) [12] = test: ratio of ligand to protein at maximum capacity, HWRGWV resin at 0.55 mmol/g
Human IgG (HIgG) (human) [13] = test: ratio of ligand to protein at maximum capacity, HWRGWV resin at 0.080 mmol/g
Human IgG (HIgG) (human) [14] = test: batch adsorption isotherm, PBS pH 7.4, HWRGWV resin at 0.10 mmol/g, Langmuir fit
Human IgG (HIgG) (human) [15] = test: ratio of ligand to protein at maximum capacity, HWRGWV resin at 0.10 mmol/g
Human IgG (HIgG) (human) [16] = test: batch adsorption isotherm, PBS pH 7.4, HWRGWV resin at 0.022 mmol/g, Langmuir fit
Human IgG (HIgG) (human) [17] = test: batch adsorption isotherm, PBS pH 7.4, HWRGWV resin at 0.22 mmol/g, Langmuir fit
Human IgG (HIgG) (human) [18] = test: batch adsorption isotherm, PBS pH 7.4, HWRGWV resin at 0.040 mmol/g, Langmuir fit
Human IgG (HIgG) (human) [19] = test: batch adsorption isotherm, PBS pH 7.4, HWRGWV resin at 0.080 mmol/g, Langmuir fit
Human IgG (HIgG) (human) [20] = test: ratio of ligand to protein at maximum capacity, HWRGWV resin at 0.022 mmol/g
Human IgG (HIgG) (human) [21] = test: ratio of ligand to protein at maximum capacity, Ac-HWRGWV resin at 0.080 mmol/g
Human IgG (HIgG) (human) [22] = test: batch adsorption isotherm, PBS pH 7.4, Ac-HWRGWV resin at 0.080 mmol/g, Langmuir fit

Molecule: HRPKIF (peptide)
Bound % [1]: 24.5%
Bound % [2]: 21.5%
Bound % (14C-HIgG (human) [3]): 11.2%
Bound % (14C-HIgG (human) [4]): 4.51%

Molecule: HEILYWA-{Toyopearl AF‑Amino‑650 resin}
Bound % [1]: 3.2%
Bound % [2]: 18%
Bound % (14C-HIgG (human) [3]): 9.16%
Bound % (14C-HIgG (human) [4]): 5.5%

Molecule: HVWQLKA-{Toyopearl AF‑Amino‑650 resin}
Bound (14C-HIgG (human) [5]): 15.1%
Unbound (14C-HIgG (human) [5]): 85%

Molecule: HIQLDGA-{Toyopearl AF‑Amino‑650 resin}
Bound (14C-HIgG (human) [5]): 10%
Unbound (14C-HIgG (human) [5]): 90%

Molecule: HFDKGFA-{Toyopearl AF‑Amino‑650 resin}
Bound % [1]: 4.28%
Bound % [2]: 12.9%
Bound % (14C-HIgG (human) [3]): 10.7%
Bound % (14C-HIgG (human) [4]): 6.01%

Molecule: HWRGWVA-{Toyopearl AF‑Amino‑650 resin}
Kd (Human IgG (HIgG) (human) [6]): 1.33 µM
qm (maximum capacity) (Human IgG (HIgG) (human) [6]): 50 mg/g
peptide/protein, mol/mol (Human IgG (HIgG) (human) [9]): 241 mol/mol
peptide/protein, mol/mol (Human IgG (HIgG) (human) [10]): 41 mol/mol
Kd (Human IgG (HIgG) (human) [11]): 0.947 µM
qm (maximum capacity) (Human IgG (HIgG) (human) [11]): 138 mg/g
Bound % [1]: 8.13%
Bound % [2]: 82.5%
Bound % (14C-HIgG (human) [3]): 62.2%
peptide/protein, mol/mol (Human IgG (HIgG) (human) [12]): 600 mol/mol
peptide/protein, mol/mol (Human IgG (HIgG) (human) [13]): 91 mol/mol
Kd (Human IgG (HIgG) (human) [14]): 10.4 µM
qm (maximum capacity) (Human IgG (HIgG) (human) [14]): 134 mg/g
peptide/protein, mol/mol (Human IgG (HIgG) (human) [15]): 112 mol/mol
Kd (Human IgG (HIgG) (human) [16]): 30 µM
qm (maximum capacity) (Human IgG (HIgG) (human) [16]): 158 mg/g
Kd (Human IgG (HIgG) (human) [17]): 2.58 µM
qm (maximum capacity) (Human IgG (HIgG) (human) [17]): 137 mg/g
Kd (Human IgG (HIgG) (human) [18]): 20.3 µM
qm (maximum capacity) (Human IgG (HIgG) (human) [18]): 148 mg/g
Kd (Human IgG (HIgG) (human) [19]): 7.25 µM
qm (maximum capacity) (Human IgG (HIgG) (human) [19]): 132 mg/g
peptide/protein, mol/mol (Human IgG (HIgG) (human) [20]): 21 mol/mol
Bound % (14C-HIgG (human) [4]): 24.4%
Kd (Human IgG (HIgG) (human) [8]): 2.8 µM
qm (maximum capacity) (Human IgG (HIgG) (human) [8]): 54.8 mg/g

Molecule: HANGFLA-{Toyopearl AF‑Amino‑650 resin}
Bound % [1]: 25.6%
Bound % [2]: 10.2%
Bound % (14C-HIgG (human) [3]): 10.5%
Bound % (14C-HIgG (human) [4]): 5.58%

Molecule: HIWA-{Toyopearl AF‑Amino‑650 resin}
Bound (14C-HIgG (human) [7]): 7.9%
Unbound (14C-HIgG (human) [7]): 92.1%
Bound (14C-HIgG (human) [5]): 12.9%
Unbound (14C-HIgG (human) [5]): 87.1%

Molecule: HWGPTKA-{Toyopearl AF‑Amino‑650 resin}
Bound (14C-HIgG (human) [7]): 14.4%
Unbound (14C-HIgG (human) [7]): 85.6%
Bound (14C-HIgG (human) [5]): 19.9%
Unbound (14C-HIgG (human) [5]): 80.1%

Molecule: HWIDPLA-{Toyopearl AF‑Amino‑650 resin}
Bound (14C-HIgG (human) [7]): 9.03%
Unbound (14C-HIgG (human) [7]): 91%
Bound (14C-HIgG (human) [5]): 19.9%
Unbound (14C-HIgG (human) [5]): 80.1%

Molecule: Ac-HWRGWVA-{Toyopearl AF‑Amino‑650 resin} [Ac-HWRGWV]
peptide/protein, mol/mol (Human IgG (HIgG) (human) [21]): 92 mol/mol
Kd (Human IgG (HIgG) (human) [22]): 3.8 µM
qm (maximum capacity) (Human IgG (HIgG) (human) [22]): 131 mg/g

Molecule: HDVFHTA-{Toyopearl AF‑Amino‑650 resin}
Bound (14C-HIgG (human) [5]): 8.55%
Unbound (14C-HIgG (human) [5]): 91.5%

Molecule: HFRRHLA-{Toyopearl AF‑Amino‑650 resin}
Kd (Human IgG (HIgG) (human) [6]): 26.4 µM
qm (maximum capacity) (Human IgG (HIgG) (human) [6]): 158 mg/g
Bound (14C-HIgG (human) [5]): 40.9%
Unbound (14C-HIgG (human) [5]): 59.1%

Molecule: HPWYVTA-{Toyopearl AF‑Amino‑650 resin}
Bound (14C-HIgG (human) [5]): 27%
Unbound (14C-HIgG (human) [5]): 73%

Molecule: HLKWYAA-{Toyopearl AF‑Amino‑650 resin}
Bound (14C-HIgG (human) [5]): 23.5%
Unbound (14C-HIgG (human) [5]): 76.5%

Molecule: HVHYYWA-{Toyopearl AF‑Amino‑650 resin}
Kd (Human IgG (HIgG) (human) [6]): 20.3 µM
qm (maximum capacity) (Human IgG (HIgG) (human) [6]): 129 mg/g
Bound (14C-HIgG (human) [7]): 55.5%
Unbound (14C-HIgG (human) [7]): 44.5%
Bound (14C-HIgG (human) [5]): 43.3%
Unbound (14C-HIgG (human) [5]): 56.7%

Results, then the molecule that gave them:

Kd (Human IgG (HIgG) (human) [6]): 11.4 µM
qm (maximum capacity) (Human IgG (HIgG) (human) [6]): 127 mg/g
Bound (14C-HIgG (human) [7]): 69.3%
Unbound (14C-HIgG (human) [7]): 30.7%
Bound (14C-HIgG (human) [5]): 43.3%
Unbound (14C-HIgG (human) [5]): 56.7%
Molecule: HYFKFDA-{Toyopearl AF‑Amino‑650 resin}

Kd (Human IgG (HIgG) (human) [6]): 0.297 µM
qm (maximum capacity) (Human IgG (HIgG) (human) [6]): 113 mg/g
Bound % [1]: 8.85%
Bound % [2]: 40.4%
Bound % (14C-HIgG (human) [3]): 91.3%
Bound % (14C-HIgG (human) [4]): 41.9%
Kd (Human IgG (HIgG) (human) [8]): 0.215 µM
qm (maximum capacity) (Human IgG (HIgG) (human) [8]): 95.1 mg/g
Molecule: YYWLHHA-{Toyopearl AF‑Amino‑650 resin}

Bound (14C-HIgG (human) [7]): 6.08%
Unbound (14C-HIgG (human) [7]): 93.9%
Bound (14C-HIgG (human) [5]): 7.34%
Unbound (14C-HIgG (human) [5]): 92.7%
Molecule: KGEA-{Toyopearl AF‑Amino‑650 resin}

Bound (14C-HIgG (human) [5]): 8.64%
Unbound (14C-HIgG (human) [5]): 91.4%
Molecule: HYIDAKA-{Toyopearl AF‑Amino‑650 resin}

Bound (14C-HIgG (human) [5]): 12.2%
Unbound (14C-HIgG (human) [5]): 87.8%
Molecule: KLQWVHA-{Toyopearl AF‑Amino‑650 resin}

Bound % [1]: 4.91%
Bound % [2]: 19.8%
Bound % (14C-HIgG (human) [3]): 17.9%
Bound % (14C-HIgG (human) [4]): 14.5%
Molecule: HYGLGWA-{Toyopearl AF‑Amino‑650 resin}

Kd (Human IgG (HIgG) (human) [6]): 1.39 µM
qm (maximum capacity) (Human IgG (HIgG) (human) [6]): 62.4 mg/g
Bound % [1]: 16.5%
Bound % [2]: 88.2%
Bound % (14C-HIgG (human) [3]): 66.2%
Bound % (14C-HIgG (human) [4]): 10.9%
Kd (Human IgG (HIgG) (human) [8]): 2.47 µM
qm (maximum capacity) (Human IgG (HIgG) (human) [8]): 81.9 mg/g
Molecule: WHWRKRA-{Toyopearl AF‑Amino‑650 resin}

Bound (14C-HIgG (human) [5]): 17.3%
Unbound (14C-HIgG (human) [5]): 82.7%
Molecule: KRGFYYA-{Toyopearl AF‑Amino‑650 resin}
